Experimental data: patent US11279747 (UNIVERSITAT ZURICH, dated 2022)
Numbering of substitutions follows the chain as printed.

Key:
human KIR3DL1 [1] = target: T1, human KIR3DL1 (human, UniProt P43629 22-340, limits assumed); assay: ELISA, receptor coated at 10 µg/mL, HLA2-Fc at 10 µg/mL, anti-human Fc-HRP
T1 construct: Bought protein coated on the ELISA plate; also called hu KIR3DL1
Procedure: (§1) Competition ELISA assays were performed using Maxisorp (Nunc, Switzerland) 96 well plates coated with 10 μg/mL of selected leukocyte receptors (human KIR3DL1, human KIR3DL2, human KIR3DL3, human LILRB1, human LILRB2, human PTPRJ and mouse Pirb) purchased from Creative Biomart. Receptors were incubated for ON 4° C., blocked with 5% milk powder-TBS 2 hrs. HLA_2-Fc selected constructs (A25_2-Fc, A30_2-Fc, B2705_2-Fc, B53_2-Fc, B57_2-Fc, B58_2-Fc, C08_2-F, and C12_2-Fc) and their controls (A25-β2m-Fc, A30-β2m-Fc, B2705-β2m-Fc, B53-β2m-Fc, B57-β2m-Fc, B58-β2m-Fc, C08-β2m-Fc and C12-β2m-Fc) and isotype IgG4 were added at 10 μg/mL for 2 hrs RT. HRP-conjugated antibodies against human Fc were used as detectors.

human KIR3DL2 [2] = target: T2, human KIR3DL2 (human, UniProt P43630 22-340, limits assumed); assay: as above
T2 construct: Bought protein coated on the ELISA plate; also called hu KIR3DL2
Procedure: as §1

human KIR3DL3 [3] = target: T3, human KIR3DL3 (human, UniProt Q8N743 26-322, limits assumed); assay: as above
T3 construct: Bought protein coated on the ELISA plate; also called hu KIR3DL3
T3 sequence (Q8N743 26-322 limits assumed): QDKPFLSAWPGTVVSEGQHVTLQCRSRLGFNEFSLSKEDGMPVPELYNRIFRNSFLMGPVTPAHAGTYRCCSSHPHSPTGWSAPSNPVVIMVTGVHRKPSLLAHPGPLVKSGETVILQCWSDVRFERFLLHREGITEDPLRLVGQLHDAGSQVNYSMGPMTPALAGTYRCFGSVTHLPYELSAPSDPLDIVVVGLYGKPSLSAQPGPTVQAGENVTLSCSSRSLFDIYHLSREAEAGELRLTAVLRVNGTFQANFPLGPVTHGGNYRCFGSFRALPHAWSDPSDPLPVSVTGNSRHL
Procedure: as §1

human LILRB1 [4] = target: T4, human LILRB1 (human, UniProt Q8NHL6 24-458, limits assumed); assay: as above
T4 construct: Bought protein coated on the ELISA plate
T4 sequence (Q8NHL6 24-458 limits assumed): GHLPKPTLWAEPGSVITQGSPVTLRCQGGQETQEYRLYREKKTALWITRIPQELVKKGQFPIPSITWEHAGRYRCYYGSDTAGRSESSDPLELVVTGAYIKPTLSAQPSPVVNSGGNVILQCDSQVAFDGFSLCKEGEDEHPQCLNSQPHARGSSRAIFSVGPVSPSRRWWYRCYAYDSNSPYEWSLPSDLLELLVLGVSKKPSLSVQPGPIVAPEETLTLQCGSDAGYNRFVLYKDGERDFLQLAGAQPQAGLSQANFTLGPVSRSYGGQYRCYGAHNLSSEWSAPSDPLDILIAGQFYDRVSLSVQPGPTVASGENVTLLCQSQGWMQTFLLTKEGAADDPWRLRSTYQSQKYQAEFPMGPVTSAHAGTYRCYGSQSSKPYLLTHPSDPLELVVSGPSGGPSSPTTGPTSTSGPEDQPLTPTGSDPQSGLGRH
Procedure: as §1

human LILRB2 [5] = target: T5, human LILRB2 (human, UniProt Q8N423 22-458, limits assumed); assay: as above
T5 construct: Bought protein coated on the ELISA plate
T5 sequence (Q8N423 22-458 limits assumed): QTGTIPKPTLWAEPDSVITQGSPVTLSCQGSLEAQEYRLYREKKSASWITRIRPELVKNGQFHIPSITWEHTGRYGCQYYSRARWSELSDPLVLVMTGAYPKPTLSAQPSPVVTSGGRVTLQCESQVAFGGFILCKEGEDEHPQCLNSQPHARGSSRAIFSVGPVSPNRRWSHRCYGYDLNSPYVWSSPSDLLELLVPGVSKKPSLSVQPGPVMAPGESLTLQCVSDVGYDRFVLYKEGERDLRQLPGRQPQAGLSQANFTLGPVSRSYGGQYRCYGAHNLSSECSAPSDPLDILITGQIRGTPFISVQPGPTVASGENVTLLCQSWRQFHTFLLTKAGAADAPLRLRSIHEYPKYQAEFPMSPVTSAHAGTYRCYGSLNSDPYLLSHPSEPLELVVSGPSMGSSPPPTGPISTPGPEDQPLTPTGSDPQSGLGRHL
Procedure: as §1

mouse Pirb [6] = target: T6, mouse Pirb (mouse, UniProt P97484 25-642, limits assumed); assay: as above
T6 construct: Bought protein coated on the ELISA plate; also called PirB (murine homologue to LILRB)
T6 sequence (looked up): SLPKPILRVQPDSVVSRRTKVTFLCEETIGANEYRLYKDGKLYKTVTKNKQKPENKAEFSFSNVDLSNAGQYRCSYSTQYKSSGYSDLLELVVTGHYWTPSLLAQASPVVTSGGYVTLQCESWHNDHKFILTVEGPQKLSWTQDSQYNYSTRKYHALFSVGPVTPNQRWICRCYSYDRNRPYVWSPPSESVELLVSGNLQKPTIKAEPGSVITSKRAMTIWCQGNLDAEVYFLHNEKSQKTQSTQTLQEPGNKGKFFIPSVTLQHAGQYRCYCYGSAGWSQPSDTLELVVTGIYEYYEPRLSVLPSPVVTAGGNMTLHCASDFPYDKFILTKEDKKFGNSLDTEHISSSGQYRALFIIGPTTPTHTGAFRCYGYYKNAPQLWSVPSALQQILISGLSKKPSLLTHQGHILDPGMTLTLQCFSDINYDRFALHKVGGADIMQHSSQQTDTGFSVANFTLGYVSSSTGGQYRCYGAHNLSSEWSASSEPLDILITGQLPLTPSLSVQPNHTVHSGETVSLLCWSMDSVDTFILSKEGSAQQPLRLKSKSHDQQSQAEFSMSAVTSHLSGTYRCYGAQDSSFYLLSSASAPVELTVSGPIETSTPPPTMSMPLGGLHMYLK
Procedure: as §1

human KIR3DL1 [7] = target: T1, human KIR3DL1; assay: ELISA (FIG. 5A)
Procedure: (§2) A) hu KIR3DL1, B) hu KIR3DL2, and C) hu KIR3DL3 are expressed in NK cells and subpopulations of T cells. D) LILRB1, and E) LILRB2 expressed mostly in myeloid cells, F) PirB (murine homologue to LILRB) and G) PTPRJ (on leukocytes is preferentially expressed in MDSCs cells and activated T cells) Figure 5:
as §1

human KIR3DL2 [8] = target: T2, human KIR3DL2; assay: ELISA (FIG. 5B)
Procedure: as §2, §1

human KIR3DL3 [9] = target: T3, human KIR3DL3; assay: ELISA (FIG. 5C)
Procedure: as §2, §1

human LILRB1 [10] = target: T4, human LILRB1; assay: ELISA (FIG. 5D)
Procedure: as §2, §1

human LILRB2 [11] = target: T5, human LILRB2; assay: ELISA (FIG. 5E)
Procedure: as §2, §1

mouse Pirb [12] = target: T6, mouse Pirb; assay: ELISA (FIG. 5F)
Procedure: as §2, §1

Measured: binding result

T1 sequence (P43629 22-340 limits assumed): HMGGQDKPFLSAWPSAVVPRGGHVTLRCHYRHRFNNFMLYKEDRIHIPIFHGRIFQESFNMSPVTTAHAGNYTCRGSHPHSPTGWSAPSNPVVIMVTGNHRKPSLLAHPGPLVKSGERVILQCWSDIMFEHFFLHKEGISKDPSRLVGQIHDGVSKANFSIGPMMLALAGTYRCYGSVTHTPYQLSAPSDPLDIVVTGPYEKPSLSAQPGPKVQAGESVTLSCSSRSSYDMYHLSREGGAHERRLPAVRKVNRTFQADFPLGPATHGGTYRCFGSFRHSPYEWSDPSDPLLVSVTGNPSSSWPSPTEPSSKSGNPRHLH

B1: B272-Fc (Fc fusion)
chain: GSHSMRYFHTSVSRPGRGEPRFITVGYVDDTLFVRFDSDAASPREEPRAPWIEQEGPEYWDRETQICKAKAQTDREDLRTLLRYYNQSEAGSHTLQNMYGCDVGPDGRLLRGYHQDAYDGKDYIALNEDLSSWTAADTAAQITQRKWEAARVAEQLRAYLEGECVEWLRRYLENGKETLQRADPPKTHVTHHPISDHEATLRCWALGFYPAEITLTWQRDGEDQTQDTELVETRPAGDRTFQKWAAVVVPSGEEQRYTCHVQHEGLPKPLTLRW
notes: also called B27052-Fc; HLA2-Fc; not shown: human IgG4 Fc (human IgG4-Fc vector, InvivoGen)
binds: human KIR3DL1 [1] | human KIR3DL2 [2] | human KIR3DL3 [3] | human LILRB1 [4] | human LILRB2 [5] | mouse Pirb [6]

B2: A302-Fc (Fc fusion)
chain: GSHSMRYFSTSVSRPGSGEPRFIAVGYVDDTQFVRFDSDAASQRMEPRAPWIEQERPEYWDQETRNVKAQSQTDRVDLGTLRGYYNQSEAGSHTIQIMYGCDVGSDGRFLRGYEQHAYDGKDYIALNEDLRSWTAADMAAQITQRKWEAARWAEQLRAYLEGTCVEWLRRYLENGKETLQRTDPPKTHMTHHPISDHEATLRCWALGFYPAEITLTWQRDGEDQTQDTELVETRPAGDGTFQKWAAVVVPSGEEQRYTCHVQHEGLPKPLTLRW
notes: also called HLA2-Fc; HLA-A30 open conformer; not shown: human IgG4 Fc (human IgG4-Fc vector, InvivoGen)
binds: human KIR3DL1 [7] | human KIR3DL2 [8] | human KIR3DL3 [3] | human LILRB1 [4] | human LILRB2 [5] | mouse Pirb [6]

B3: B582-Fc (Fc fusion)
chain: GSHSMRYFYTAMSRPGRGEPRFIAVGYVDDTQFVRFDSDAASPRTEPRAPWIEQEGPEYWDGETRNMKASAQTYRENLRIALRYYNQSEAGSHIIQRMYGCDLGPDGRLLRGHDQSAYDGKDYIALNEDLSSWTAADTAAQITQRKWEAARVAEQLRAYLEGLCVEWLRRYLENGKETLQRADPPKTHVTHHPVSDHEATLRCWALGFYPAEITLTWQRDGEDQTQDTELVETRPAGDRTFQKWAAVVVPSGEEQRYTCHVQHEGLPKPLTLRW
notes: also called HLA2-Fc; HLA-B58 open conformer; not shown: human IgG4 Fc (human IgG4-Fc vector, InvivoGen)
binds: human KIR3DL1 [1] | human KIR3DL2 [2] | human KIR3DL3 [3] | human LILRB1 [4] | human LILRB2 [5] | mouse Pirb [6]

B4: B572-Fc (Fc fusion)
chain: B3 chain with T45M, E46A, R97V, L103V, V194I
notes: also called HLA2-Fc; HLA-B57 open conformer; not shown: human IgG4 Fc (human IgG4-Fc vector, InvivoGen)
binds: human KIR3DL1 [1] | human KIR3DL2 [2] | human KIR3DL3 [3] | human LILRB1 [4] | human LILRB2 [5] | mouse Pirb [6]

B5: B532-Fc (Fc fusion)
chain: B3 chain with G62R, E63N, R65Q, N66I, M67F, A69T, S70N, A71T
notes: also called HLA2-Fc; HLA-B53 open conformer; not shown: human IgG4 Fc (human IgG4-Fc vector, InvivoGen)
binds: human KIR3DL1 [1] | human KIR3DL2 [2] | human KIR3DL3 [3] | human LILRB1 [4] | human LILRB2 [5] | mouse Pirb [6]

B6: C082-Fc (Fc fusion)
chain: CSHSMRYFYTAVSRPGRGEPRFIAVGYVDDTQFVQFDSDAASPRGEPRAPWVEQEGPEYWDRETQKYKRQAQTDRVSLRNLRGYYNQSEAGSHTLQRMYGCDLGPDGRLLRGYNQFAYDGKDYIALNEDLRSWTAADTAAQITQRKWEAARTAEQLRAYLEGTCVEWLRRYLENGKKTLQRAEHPKTHVTHHPVSDHEATLRCWALGFYPAEITLTWQRDGEDQTQDTELVETRPAGDGTFQKWAAVVVPSGEEQRYTCHVQHEGLPEPLTLRW
notes: also called HLA2-Fc; HLA-C08 open conformer; not shown: human IgG4 Fc (human IgG4-Fc vector, InvivoGen)
binds: human KIR3DL1 [7] | human KIR3DL2 [8] | human KIR3DL3 [9] | human LILRB1 [10] | human LILRB2 [11] | mouse Pirb [12]

B7: C122-Fc (Fc fusion)
chain: B6 chain with Q35R, T73A, N114D, F116S, T152E, L156W, K177E
notes: also called HLA2-Fc; HLA-C12 open conformer; not shown: human IgG4 Fc (human IgG4-Fc vector, InvivoGen)
binds: human KIR3DL1 [7] | human KIR3DL2 [8] | human KIR3DL3 [9] | human LILRB1 [10] | human LILRB2 [11] | mouse Pirb [12]

B8: A252-Fc (Fc fusion)
chain: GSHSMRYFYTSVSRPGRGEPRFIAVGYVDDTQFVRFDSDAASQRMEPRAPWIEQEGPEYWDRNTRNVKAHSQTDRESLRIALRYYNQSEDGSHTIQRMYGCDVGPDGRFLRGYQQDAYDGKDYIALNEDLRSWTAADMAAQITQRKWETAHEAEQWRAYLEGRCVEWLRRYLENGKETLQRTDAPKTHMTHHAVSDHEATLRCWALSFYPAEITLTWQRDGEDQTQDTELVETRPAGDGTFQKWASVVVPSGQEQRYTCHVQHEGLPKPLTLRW
notes: also called HLA2-Fc; HLA-A25 open conformer; not shown: human IgG4 Fc (human IgG4-Fc vector, InvivoGen)
binds: human KIR3DL1 [1] | human KIR3DL2 [2] | human KIR3DL3 [3] | human LILRB1 [4] | human LILRB2 [5] | mouse Pirb [6]
